These are literature values, as cited in article PMC4732575.

For data set [1], the target named is LDLR (Homo sapiens) (UniProt P01130).
Data set [2] deals with CD36 (Homo sapiens) (UniProt P16671).
Chain of CD36 (Homo sapiens) (P16671 2-472): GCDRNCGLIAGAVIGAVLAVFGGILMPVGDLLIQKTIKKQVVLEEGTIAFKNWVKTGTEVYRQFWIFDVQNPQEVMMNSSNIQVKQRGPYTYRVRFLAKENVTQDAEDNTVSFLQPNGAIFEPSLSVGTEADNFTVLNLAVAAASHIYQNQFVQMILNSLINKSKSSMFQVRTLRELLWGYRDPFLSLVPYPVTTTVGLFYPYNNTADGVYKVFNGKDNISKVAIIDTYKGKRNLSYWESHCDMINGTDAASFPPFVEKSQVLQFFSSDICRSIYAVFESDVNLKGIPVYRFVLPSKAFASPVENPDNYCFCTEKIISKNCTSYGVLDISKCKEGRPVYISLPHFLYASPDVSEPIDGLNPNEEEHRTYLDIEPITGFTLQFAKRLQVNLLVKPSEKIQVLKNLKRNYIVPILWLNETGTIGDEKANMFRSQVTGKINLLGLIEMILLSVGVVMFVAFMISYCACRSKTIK

Chain of PCSK9 (Q8NBP7 153-692): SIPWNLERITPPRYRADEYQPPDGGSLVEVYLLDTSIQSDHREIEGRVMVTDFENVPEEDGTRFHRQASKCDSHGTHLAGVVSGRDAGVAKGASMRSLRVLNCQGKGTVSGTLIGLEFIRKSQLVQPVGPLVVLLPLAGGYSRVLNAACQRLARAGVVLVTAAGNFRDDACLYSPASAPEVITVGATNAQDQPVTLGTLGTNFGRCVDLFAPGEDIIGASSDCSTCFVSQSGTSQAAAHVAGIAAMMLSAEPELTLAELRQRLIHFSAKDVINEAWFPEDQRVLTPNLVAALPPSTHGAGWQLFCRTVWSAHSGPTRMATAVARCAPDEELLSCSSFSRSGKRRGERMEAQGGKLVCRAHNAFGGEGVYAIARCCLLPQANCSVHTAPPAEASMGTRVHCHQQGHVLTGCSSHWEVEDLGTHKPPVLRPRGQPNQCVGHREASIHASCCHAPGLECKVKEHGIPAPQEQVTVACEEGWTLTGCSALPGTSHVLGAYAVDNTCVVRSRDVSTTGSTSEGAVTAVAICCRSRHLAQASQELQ
Chain of LDLR (Homo sapiens) (P01130 22-788): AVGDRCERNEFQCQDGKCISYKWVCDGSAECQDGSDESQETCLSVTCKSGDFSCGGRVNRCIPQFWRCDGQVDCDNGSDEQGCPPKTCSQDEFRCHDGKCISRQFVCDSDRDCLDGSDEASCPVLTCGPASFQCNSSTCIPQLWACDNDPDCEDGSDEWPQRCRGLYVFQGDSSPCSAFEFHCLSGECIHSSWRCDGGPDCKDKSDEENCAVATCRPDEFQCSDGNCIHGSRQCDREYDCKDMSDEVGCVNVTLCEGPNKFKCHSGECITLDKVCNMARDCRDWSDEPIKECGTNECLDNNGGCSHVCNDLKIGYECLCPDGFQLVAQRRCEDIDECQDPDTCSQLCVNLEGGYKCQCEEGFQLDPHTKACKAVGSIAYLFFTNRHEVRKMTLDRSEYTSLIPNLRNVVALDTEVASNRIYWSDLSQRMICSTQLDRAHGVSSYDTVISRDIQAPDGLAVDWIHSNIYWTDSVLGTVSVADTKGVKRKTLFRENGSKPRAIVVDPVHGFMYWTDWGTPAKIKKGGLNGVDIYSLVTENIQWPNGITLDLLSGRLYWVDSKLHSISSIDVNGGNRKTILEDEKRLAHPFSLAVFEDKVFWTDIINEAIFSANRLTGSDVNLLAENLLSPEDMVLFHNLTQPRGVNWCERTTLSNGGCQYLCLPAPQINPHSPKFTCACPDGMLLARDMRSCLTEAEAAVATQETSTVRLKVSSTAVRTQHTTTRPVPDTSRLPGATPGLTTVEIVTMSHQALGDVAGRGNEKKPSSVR

PCSK9 (from UniProt Q8NBP7): the Kd in data set [1] and in data set [2] was 1000 nM in each case.

As usually defined, the Kd is the free concentration of one partner at which half of the binding sites on the other are occupied at equilibrium, for simple one-to-one binding.
